Results from the supplement of paper PMC11908140.

B1: library; numbered along this chain (parent)
chain: MRKPRAAVGSGHRKQAASQEGRQKHAKNNSQAKPSACDGLARQPEEVVLQASVSSYHLFRDVAEVTAFRGSLLSWYDQEKRDLPWRRRAEDEMDLDRRAYAVWVSEVMLQQTQVATVINYYTGWMQKWPTLQDLASASLEEVNQLWAGLGYYSRGRRLQEGARKVVEELGGHMPRTAETLQQLLPGVGRYTAGAIASIAFGQATGVVDGNVARVLCRVRAIGADPSSTLVSQQLWGLAQQLVDPARPGDFNQAAMELGATVCTPQRPLCSQCPVESLCRARQRVEQEQLLASGSLSGSPDVEECAPNTGQCHLCLPPSEPWDQTLGVVNFPRKASRKPPREESSATCVLEQPGALGAQILLVQRPNSGLLAGLWEFPSVTWEPSEQLQRKALLQELQRWAGPLPATHLRHLGEVVHTFSHIKLTYQVYGLALEGQTPVTTVPPGARWLTQEEFHTAAVSTAMKKVFRVYQGQQPGTCMGSKRSQVSSPCSRKKPRMGQQVLDNFFRSHISTDAHSLNSAAQ

Variants of: B1
Assay: 8OG:A repair function score (normalized; synonymous = 0, nonsense = -1) (normalized log-likelihood score); higher = more repair activity (WT-like)
Details: with 8OG:A DNA repair reporter (GFP) in HEK-293 MUTYH KO cells
Summary of the method: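 Lentiviral MUTYH cDNA NNN codon-scan libraries were expressed in MUTYH knockout HEK-293 cells with 10 pg/ml doxycycline, and the cells received an 8OG:A GFP repair reporter together with mCherry. At 72 h, viable mCherry+ cells went into GFP+ (repair) or GFP− bins, three replicates per tile, before tile amplicons were sequenced. A repair function score was then built from per-tile Rosace fitness scores, anchored on the synonymous and nonsense distributions. Synonymous medians sat at 0 and nonsense at -1, and variants under 300 counts per million at the start were left out.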
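Further: cells sorted at 72 h after reporter transfection.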

| Variant | 8OG:A repair function score |
| --- | --- |
| MRKPRAAVGSGHRKQAASQEGRQKHAKNNSQAKPSACDGLARQPEEVVLQASVSSYHLFRDVAEVTAFRGSLLSWYDQEKRDLPWRRRAEDEMDLDRRAYAVWVSEVMLQQTQVATVINYYTGWMQKWPTLQDLASASLEEVNQLWAGLGYYSRGRRLQEGARKVVEELGGHMPRTAETLQQLLPGVGRYTAGAIASIAFGQATGVVDGNVARVLCRVRAIGADPSSTLVSQQLWGLAQQCVDPARPGDFNQAAMELGATVCTPQRPLCSQCPVESLCRARQRVEQEQLLASGSLSGSPDVEECAPNTGQCHLCLPPSEPWDQTLGVVNFPRKASRKPPREESSATCVLEQPGALGAQILLVQRPNSGLLAGLWEFPSVTWEPSEQLQRKALLQELQRWAGPLPATHLRHLGEVVHTFSHIKLTYQVYGLALEGQTPVTTVPPGARWLTQEEFHTAAVSTAMKKVFRVYQGQQPGTCMGSKRSQVSSPCSRKKPRMGQQVLDNFFRSHISTDAHSLNSAAQ [L241C] | -0.37 |
| MRKPRAAVGSGHRKQAASQEGRQKHAKNNSQAKPSACDGLARQPEEVVLQASVSSYHLFRDVAEVTAFRGSLLSWYDQEKRDLPWRRRAEDEMDLDRRAYAVWVSEVMLQQTQVATVINYYTGWMQKWPTLQDLASASLEEVNQLWAGLGYYSRGRRLQEGARKVVEELGGHMPRTAETLQQLLPGVGRYTAGAIASIAFGQATGVVDGNVARVLCRVRAIGADPSSTLVSQQLWGLAQQGVDPARPGDFNQAAMELGATVCTPQRPLCSQCPVESLCRARQRVEQEQLLASGSLSGSPDVEECAPNTGQCHLCLPPSEPWDQTLGVVNFPRKASRKPPREESSATCVLEQPGALGAQILLVQRPNSGLLAGLWEFPSVTWEPSEQLQRKALLQELQRWAGPLPATHLRHLGEVVHTFSHIKLTYQVYGLALEGQTPVTTVPPGARWLTQEEFHTAAVSTAMKKVFRVYQGQQPGTCMGSKRSQVSSPCSRKKPRMGQQVLDNFFRSHISTDAHSLNSAAQ [L241G] | -0.827 |
| MRKPRAAVGSGHRKQAASQEGRQKHAKNNSQAKPSACDGLARQPEEVVLQASVSSYHLFRDVAEVTAFRGSLLSWYDQEKRDLPWRRRAEDEMDLDRRAYAVWVSEVMLQQTQVATVINYYTGWMQKWPTLQDLASASLEEVNQLWAGLGYYSRGRRLQEGARKVVEELGGHMPRTAETLQQLLPGVGRYTAGAIASIAFGQATGVVDGNVARVLCRVRAIGADPSSTLVSQQLWGLAQQFVDPARPGDFNQAAMELGATVCTPQRPLCSQCPVESLCRARQRVEQEQLLASGSLSGSPDVEECAPNTGQCHLCLPPSEPWDQTLGVVNFPRKASRKPPREESSATCVLEQPGALGAQILLVQRPNSGLLAGLWEFPSVTWEPSEQLQRKALLQELQRWAGPLPATHLRHLGEVVHTFSHIKLTYQVYGLALEGQTPVTTVPPGARWLTQEEFHTAAVSTAMKKVFRVYQGQQPGTCMGSKRSQVSSPCSRKKPRMGQQVLDNFFRSHISTDAHSLNSAAQ [L241F] | -0.872 |
| MRKPRAAVGSGHRKQAASQEGRQKHAKNNSQAKPSACDGLARQPEEVVLQASVSSYHLFRDVAEVTAFRGSLLSWYDQEKRDLPWRRRAEDEMDLDRRAYAVWVSEVMLQQTQVATVINYYTGWMQKWPTLQDLASASLEEVNQLWAGLGYYSRGRRLQEGARKVVEELGGHMPRTAETLQQLLPGVGRYTAGAIASIAFGQATGVVDGNVARVLCRVRAIGADPSSTLVSQQLWGLAQQDVDPARPGDFNQAAMELGATVCTPQRPLCSQCPVESLCRARQRVEQEQLLASGSLSGSPDVEECAPNTGQCHLCLPPSEPWDQTLGVVNFPRKASRKPPREESSATCVLEQPGALGAQILLVQRPNSGLLAGLWEFPSVTWEPSEQLQRKALLQELQRWAGPLPATHLRHLGEVVHTFSHIKLTYQVYGLALEGQTPVTTVPPGARWLTQEEFHTAAVSTAMKKVFRVYQGQQPGTCMGSKRSQVSSPCSRKKPRMGQQVLDNFFRSHISTDAHSLNSAAQ [L241D] | -0.924 |
| MRKPRAAVGSGHRKQAASQEGRQKHAKNNSQAKPSACDGLARQPEEVVLQASVSSYHLFRDVAEVTAFRGSLLSWYDQEKRDLPWRRRAEDEMDLDRRAYAVWVSEVMLQQTQVATVINYYTGWMQKWPTLQDLASASLEEVNQLWAGLGYYSRGRRLQEGARKVVEELGGHMPRTAETLQQLLPGVGRYTAGAIASIAFGQATGVVDGNVARVLCRVRAIGADPSSTLVSQQLWGLAQQHVDPARPGDFNQAAMELGATVCTPQRPLCSQCPVESLCRARQRVEQEQLLASGSLSGSPDVEECAPNTGQCHLCLPPSEPWDQTLGVVNFPRKASRKPPREESSATCVLEQPGALGAQILLVQRPNSGLLAGLWEFPSVTWEPSEQLQRKALLQELQRWAGPLPATHLRHLGEVVHTFSHIKLTYQVYGLALEGQTPVTTVPPGARWLTQEEFHTAAVSTAMKKVFRVYQGQQPGTCMGSKRSQVSSPCSRKKPRMGQQVLDNFFRSHISTDAHSLNSAAQ [L241H] | -1.01 |
| MRKPRAAVGSGHRKQAASQEGRQKHAKNNSQAKPSACDGLARQPEEVVLQASVSSYHLFRDVAEVTAFRGSLLSWYDQEKRDLPWRRRAEDEMDLDRRAYAVWVSEVMLQQTQVATVINYYTGWMQKWPTLQDLASASLEEVNQLWAGLGYYSRGRRLQEGARKVVEELGGHMPRTAETLQQLLPGVGRYTAGAIASIAFGQATGVVDGNVARVLCRVRAIGADPSSTLVSQQLWGLAQQAVDPARPGDFNQAAMELGATVCTPQRPLCSQCPVESLCRARQRVEQEQLLASGSLSGSPDVEECAPNTGQCHLCLPPSEPWDQTLGVVNFPRKASRKPPREESSATCVLEQPGALGAQILLVQRPNSGLLAGLWEFPSVTWEPSEQLQRKALLQELQRWAGPLPATHLRHLGEVVHTFSHIKLTYQVYGLALEGQTPVTTVPPGARWLTQEEFHTAAVSTAMKKVFRVYQGQQPGTCMGSKRSQVSSPCSRKKPRMGQQVLDNFFRSHISTDAHSLNSAAQ [L241A] | -0.581 |
| MRKPRAAVGSGHRKQAASQEGRQKHAKNNSQAKPSACDGLARQPEEVVLQASVSSYHLFRDVAEVTAFRGSLLSWYDQEKRDLPWRRRAEDEMDLDRRAYAVWVSEVMLQQTQVATVINYYTGWMQKWPTLQDLASASLEEVNQLWAGLGYYSRGRRLQEGARKVVEELGGHMPRTAETLQQLLPGVGRYTAGAIASIAFGQATGVVDGNVARVLCRVRAIGADPSSTLVSQQLWGLAQQEVDPARPGDFNQAAMELGATVCTPQRPLCSQCPVESLCRARQRVEQEQLLASGSLSGSPDVEECAPNTGQCHLCLPPSEPWDQTLGVVNFPRKASRKPPREESSATCVLEQPGALGAQILLVQRPNSGLLAGLWEFPSVTWEPSEQLQRKALLQELQRWAGPLPATHLRHLGEVVHTFSHIKLTYQVYGLALEGQTPVTTVPPGARWLTQEEFHTAAVSTAMKKVFRVYQGQQPGTCMGSKRSQVSSPCSRKKPRMGQQVLDNFFRSHISTDAHSLNSAAQ [L241E] | -0.98 |
| MRKPRAAVGSGHRKQAASQEGRQKHAKNNSQAKPSACDGLARQPEEVVLQASVSSYHLFRDVAEVTAFRGSLLSWYDQEKRDLPWRRRAEDEMDLDRRAYAVWVSEVMLQQTQVATVINYYTGWMQKWPTLQDLASASLEEVNQLWAGLGYYSRGRRLQEGARKVVEELGGHMPRTAETLQQLLPGVGRYTAGAIASIAFGQATGVVDGNVARVLCRVRAIGADPSSTLVSQQLWGLAQSLVDPARPGDFNQAAMELGATVCTPQRPLCSQCPVESLCRARQRVEQEQLLASGSLSGSPDVEECAPNTGQCHLCLPPSEPWDQTLGVVNFPRKASRKPPREESSATCVLEQPGALGAQILLVQRPNSGLLAGLWEFPSVTWEPSEQLQRKALLQELQRWAGPLPATHLRHLGEVVHTFSHIKLTYQVYGLALEGQTPVTTVPPGARWLTQEEFHTAAVSTAMKKVFRVYQGQQPGTCMGSKRSQVSSPCSRKKPRMGQQVLDNFFRSHISTDAHSLNSAAQ [Q240S] | -0.945 |
| MRKPRAAVGSGHRKQAASQEGRQKHAKNNSQAKPSACDGLARQPEEVVLQASVSSYHLFRDVAEVTAFRGSLLSWYDQEKRDLPWRRRAEDEMDLDRRAYAVWVSEVMLQQTQVATVINYYTGWMQKWPTLQDLASASLEEVNQLWAGLGYYSRGRRLQEGARKVVEELGGHMPRTAETLQQLLPGVGRYTAGAIASIAFGQATGVVDGNVARVLCRVRAIGADPSSTLVSQQLWGLAQVLVDPARPGDFNQAAMELGATVCTPQRPLCSQCPVESLCRARQRVEQEQLLASGSLSGSPDVEECAPNTGQCHLCLPPSEPWDQTLGVVNFPRKASRKPPREESSATCVLEQPGALGAQILLVQRPNSGLLAGLWEFPSVTWEPSEQLQRKALLQELQRWAGPLPATHLRHLGEVVHTFSHIKLTYQVYGLALEGQTPVTTVPPGARWLTQEEFHTAAVSTAMKKVFRVYQGQQPGTCMGSKRSQVSSPCSRKKPRMGQQVLDNFFRSHISTDAHSLNSAAQ [Q240V] | -0.936 |
| MRKPRAAVGSGHRKQAASQEGRQKHAKNNSQAKPSACDGLARQPEEVVLQASVSSYHLFRDVAEVTAFRGSLLSWYDQEKRDLPWRRRAEDEMDLDRRAYAVWVSEVMLQQTQVATVINYYTGWMQKWPTLQDLASASLEEVNQLWAGLGYYSRGRRLQEGARKVVEELGGHMPRTAETLQQLLPGVGRYTAGAIASIAFGQATGVVDGNVARVLCRVRAIGADPSSTLVSQQLWGLAQTLVDPARPGDFNQAAMELGATVCTPQRPLCSQCPVESLCRARQRVEQEQLLASGSLSGSPDVEECAPNTGQCHLCLPPSEPWDQTLGVVNFPRKASRKPPREESSATCVLEQPGALGAQILLVQRPNSGLLAGLWEFPSVTWEPSEQLQRKALLQELQRWAGPLPATHLRHLGEVVHTFSHIKLTYQVYGLALEGQTPVTTVPPGARWLTQEEFHTAAVSTAMKKVFRVYQGQQPGTCMGSKRSQVSSPCSRKKPRMGQQVLDNFFRSHISTDAHSLNSAAQ [Q240T] | -0.972 |
| MRKPRAAVGSGHRKQAASQEGRQKHAKNNSQAKPSACDGLARQPEEVVLQASVSSYHLFRDVAEVTAFRGSLLSWYDQEKRDLPWRRRAEDEMDLDRRAYAVWVSEVMLQQTQVATVINYYTGWMQKWPTLQDLASASLEEVNQLWAGLGYYSRGRRLQEGARKVVEELGGHMPRTAETLQQLLPGVGRYTAGAIASIAFGQATGVVDGNVARVLCRVRAIGADPSSTLVSQQLWGLAQYLVDPARPGDFNQAAMELGATVCTPQRPLCSQCPVESLCRARQRVEQEQLLASGSLSGSPDVEECAPNTGQCHLCLPPSEPWDQTLGVVNFPRKASRKPPREESSATCVLEQPGALGAQILLVQRPNSGLLAGLWEFPSVTWEPSEQLQRKALLQELQRWAGPLPATHLRHLGEVVHTFSHIKLTYQVYGLALEGQTPVTTVPPGARWLTQEEFHTAAVSTAMKKVFRVYQGQQPGTCMGSKRSQVSSPCSRKKPRMGQQVLDNFFRSHISTDAHSLNSAAQ [Q240Y] | -0.969 |
| MRKPRAAVGSGHRKQAASQEGRQKHAKNNSQAKPSACDGLARQPEEVVLQASVSSYHLFRDVAEVTAFRGSLLSWYDQEKRDLPWRRRAEDEMDLDRRAYAVWVSEVMLQQTQVATVINYYTGWMQKWPTLQDLASASLEEVNQLWAGLGYYSRGRRLQEGARKVVEELGGHMPRTAETLQQLLPGVGRYTAGAIASIAFGQATGVVDGNVARVLCRVRAIGADPSSTLVSQQLWGLAQWLVDPARPGDFNQAAMELGATVCTPQRPLCSQCPVESLCRARQRVEQEQLLASGSLSGSPDVEECAPNTGQCHLCLPPSEPWDQTLGVVNFPRKASRKPPREESSATCVLEQPGALGAQILLVQRPNSGLLAGLWEFPSVTWEPSEQLQRKALLQELQRWAGPLPATHLRHLGEVVHTFSHIKLTYQVYGLALEGQTPVTTVPPGARWLTQEEFHTAAVSTAMKKVFRVYQGQQPGTCMGSKRSQVSSPCSRKKPRMGQQVLDNFFRSHISTDAHSLNSAAQ [Q240W] | -1 |
